Source: US20250320281A1 (published 2025)
Residue numbers refer to the chain shown, from its start.

B1: 1460_G14 (PGG14) (antibody, human IgG1, kappa, V domains shown)
VH: QVLLVQSGTEVKKPGSSVKVSCQASGGAFSSYAFSWVRQAPGQGLEWMGMITPVFGETKYAPRFQGRLTLTAEESLSTTYMELRSLTSDDTAFYYCTRDRRVVPMATDNWLDPWGQGTLVTVSS
VL: DIQLTQSPSSLSASVGDRVTVTCRASQTIHTYLNWYQQIPGKAPKLLIYGASTLQSGVPSRFSGSGSGTDFTLTINSLQPEDFATYYCQQSYSTPRTFGQGTRLDIKR
B2: 1456_P20 (PG20) (antibody, human IgG1, kappa, V domains shown)
VH: QVRLVQSGPEVKKPGSSVTVSCQASGGTFSSYAFTWVRQAPGQGLEWLGMVTPIFGEAKYSQRFEGRVTITADESTSTTSIELRGLTSEDTAIYYCARDRRAVPIATDNWLDPWGQGTLVTVSS
VL: B1 VL with T20S, V21I, H30N, T31N, I39T, T53N, S56N, N76S, Y92F
B3: 1460_G14 (PGG14) (antibody, human IgG1, kappa, V domains shown)
VH: B1 VH
VL: B1 VL
B4: 1443_C16 (PG16) (TCN-116) (antibody, V domains shown)
VH: QEQLVESGGGVVQPGGSLRLSCLASGFTFHKYGMHWVRQAPGKGLEWVALISDDGMRKYHSDSMWGRVTISRDNSKNTLYLQFSSLKVEDTAMFFCAREAGGPIWHDDVKYYDFNDGYYNYHYMDVWGKGTTVTVSS
VL: QSALTQPASVSGSPGQTITISCNGTSSDVGGFDSVSWYQQSPGKAPKVMVFDVSHRPSGISNRFSGSKSGNTASLTISGLHIEDEGDYFCSSLTDRSHRIFGGGTKVTVLG
B5: 1495_C14 (PGC14) (antibody, human IgG1, lambda, V domains shown)
VH: DGHLVQSGVEVKKTGATVKISCKVSGYSFIDYYLHWVQRAPGKGLEWVGLIDPENGEARYAEKFQGRVTIIADTSIDTGYMEMRSLKSEDTAVYFCAAGAVGADSGSWFDPWGQGTLVTVSS
VL: SYELTQPPSVSVSPGQTASITCSGSKLGDKYVSWYQLRPGQSPILVMYENDRRPSGIPERFSGSNSGDTATLTISGTQALDEADFYCQAWETTTTTFVFFGGGTQLTVLG
B6: 1496_C09 (PG9) (TCN-109) (antibody, V domains shown)
VH: QRLVESGGGVVQPGSSLRLSCAASGFDFSRQGMHWVRQAPGQGLEWVAFIKYDGSEKYHADSVWGRLSISRDNSKDTLYLQMNSLRVEDTATYFCVREAGGPDYRNGYNYYDFYDGYYNYHYMDVWGKGTTVTVSS
VL: QSALTQPASVSGSPGQSITISCNGTSNDVGGYESVSWYQQHPGKAPKVVIYDVSKRPSGVSNRFSGSKSGNTASLTISGLQAEDEGDYYCKSLTSTRRRVFGTGTKLTVLG

Assays:
Assay in all cases: cell-based or functional assay
[1] = target: HIV-1 92RW020 Env (pseudovirus) (HIV-1 isolate 92RW020)
[2] = target: HIV-1 IAVI-C22 Env (pseudovirus) (HIV-1 isolate IAVI-C22)
[3] = target: HIV-1 APV-13 Env (pseudovirus) (HIV-1 isolate APV-13)
[4] = target: HIV-1 92UG005 Env (pseudovirus) (HIV-1 isolate 92UG005)
[5] = target: HIV-1 93IN905 Env (pseudovirus) (HIV-1 isolate 93IN905)
[6] = target: HIV-1 94UG103 Env (pseudovirus) (HIV-1 isolate 94UG103)
[7] = target: HIV-1 93UG077 Env (pseudovirus) (HIV-1 isolate 93UG077)
[8] = target: HIV-1 IAVI-C3 Env (pseudovirus) (HIV-1 isolate IAVI-C3)
[9] = target: HIV-1 92UG024 Env (pseudovirus) (HIV-1 isolate 92UG024)
[10] = target: HIV-1 APV-17 Env (pseudovirus) (HIV-1 isolate APV-17)
[11] = target: HIV-1 APV-6 Env (pseudovirus) (HIV-1 isolate APV-6)
[12] = target: HIV-1 92TH021 Env (pseudovirus) (HIV-1 isolate 92TH021)
[13] = target: HIV-1 CMU02 Env (pseudovirus) (HIV-1 isolate CMU02)
[14] = target: HIV-1 92BR020 Env (pseudovirus) (HIV-1 isolate 92BR020)
[15] = target: HIV-1 IAVI-C18 Env (pseudovirus) (HIV-1 isolate IAVI-C18)
[16] = target: HIV-1 SF162 Env on pseudotyped virus (HIV-1 isolate SF162)
[17] = target: HIV-1 93IN905 Env on pseudotyped virus (HIV-1 isolate 93IN905)
[18] = target: HIV-1 92TH021 Env on pseudotyped virus (HIV-1 isolate 92TH021)
[19] = target: HIV-1 94UG103 Env on pseudotyped virus (HIV-1 isolate 94UG103)
[20] = target: HIV-1 NL43 Env on pseudotyped virus (HIV-1 NL43)
[21] = target: HIV-1 IAVI_C22 Env on pseudotyped virus (HIV-1 isolate IAVI_C22)
[22] = target: HIV-1 92BR020 Env on pseudotyped virus (HIV-1 isolate 92BR020)

| Binder | IC50 (µg/mL), pseudovirus neutralization [1] [µg/mL] | IC50 (µg/mL), pseudovirus neutralization [2] [µg/mL] | IC50 (µg/mL), pseudovirus neutralization [3] [µg/mL] | IC50 (µg/mL), pseudovirus neutralization [4] [µg/mL] | IC50 (µg/mL), pseudovirus neutralization [5] [µg/mL] | IC50 (µg/mL), pseudovirus neutralization [6] [µg/mL] | IC50 (µg/mL), pseudovirus neutralization [7] [µg/mL] | IC50 (µg/mL), pseudovirus neutralization [8] [µg/mL] | IC50 (µg/mL), pseudovirus neutralization [9] [µg/mL] | IC50 (µg/mL), pseudovirus neutralization [10] [µg/mL] | IC50 (µg/mL), pseudovirus neutralization [11] [µg/mL] | IC50 (µg/mL), pseudovirus neutralization [12] [µg/mL] | IC50 (µg/mL), pseudovirus neutralization [13] [µg/mL] | IC50 (µg/mL), pseudovirus neutralization [14] [µg/mL] | IC50 (µg/mL), pseudovirus neutralization [15] [µg/mL] | other results |
| --- | --- | --- | --- | --- | --- | --- | --- | --- | --- | --- | --- | --- | --- | --- | --- | --- |
| B1 | > 50 | > 50 | > 50 | > 50 | > 50 | > 50 | > 50 | > 50 | > 50 | > 50 | > 50 | > 50 | > 50 | > 50 | > 50 |  |
| B2 | 50 | > 50 | > 50 | > 50 | > 50 | > 50 | > 50 | > 50 | > 50 | > 50 | 25.8 | > 50 | > 50 | > 50 | > 50 |  |
| B3 |  |  |  |  |  |  |  |  |  |  |  |  |  |  |  | Neutralizing Antibody Assay: IC50; Virus/Ab Incubation 1 hour [16]: 0.179 mg/L; Neutralizing Antibody Assay: IC50; Virus/Ab Incubation 18 hour [16]: 0.0573 mg/L; Neutralizing Antibody Assay: IC50; Virus/Ab Incubation 1 hour [17]: > 50 mg/L; Neutralizing Antibody Assay: IC50; Virus/Ab Incubation 18 hour [17]: 3.17 mg/L; Neutralizing Antibody Assay: IC50; Virus/Ab Incubation 1 hour [18]: > 50 mg/L; Neutralizing Antibody Assay: IC50; Virus/Ab Incubation 18 hour [18]: > 50 mg/L; Neutralizing Antibody Assay: IC50; Virus/Ab Incubation 1 hour [19]: > 50 mg/L; Neutralizing Antibody Assay: IC50; Virus/Ab Incubation 18 hour [19]: > 50 mg/L; Neutralizing Antibody Assay: IC50; Virus/Ab Incubation 1 hour [20]: 0.17 mg/L; Neutralizing Antibody Assay: IC50; Virus/Ab Incubation 18 hour [20]: 0.05 mg/L; Neutralizing Antibody Assay: IC50; Virus/Ab Incubation 1 hour [21]: > 50 mg/L; Neutralizing Antibody Assay: IC50; Virus/Ab Incubation 18 hour [21]: > 50 mg/L; Neutralizing Antibody Assay: IC50; Virus/Ab Incubation 1 hour [22]: > 50 mg/L; Neutralizing Antibody Assay: IC50; Virus/Ab Incubation 18 hour [22]: > 50 mg/L |
| B4 | 0.004 | 0.069 | > 50 | > 50 | 0.1 | 0.008 | > 50 | 14.8 | > 50 | > 50 | 0.08 | 0.13 | > 50 | > 50 | 0.007 |  |
| B5 | 28.6 | > 50 | > 50 | > 50 | > 50 | > 50 | > 50 | 9.5 | > 50 | > 50 | 7.41 | > 50 | > 50 | 0.64 | > 50 |  |
| B6 | 0.06 |  | > 50 | > 50 |  | 0.17 | > 50 | 12.9 |  | 26.4 | 0.09 |  | > 50 | > 50 | 0.05 |  |
